Laboratory results from article PMC11913275, “Targeting prostate cancer by new bispecific monocyte engager directed to prostate-specific membrane antigen” (PLOS One, 2025).

Molecular target: T1, Prostate-specific membrane antigen (Homo sapiens, UniProt Q04609)
T1 construct: also called PSMA; glutamate carboxypeptidase II; source: on PSMA-positive PC3-PIP cells
Assay: flow cytometry on cells; PSMA-positive PC3-PIP cells (PC3 as negative control) mixed with 5-fold dilution series of the construct, 20 μL, 15 min at 4°C; 5D3-CP33 detected by anti-Strep tag antibody and Alexa Fluor 647 secondary, ch5D3 by anti-human Alexa Fluor 647 secondary; KD by non-linear regression
Conditions: one partner purified

T1 sequence (Q04609 whole entry): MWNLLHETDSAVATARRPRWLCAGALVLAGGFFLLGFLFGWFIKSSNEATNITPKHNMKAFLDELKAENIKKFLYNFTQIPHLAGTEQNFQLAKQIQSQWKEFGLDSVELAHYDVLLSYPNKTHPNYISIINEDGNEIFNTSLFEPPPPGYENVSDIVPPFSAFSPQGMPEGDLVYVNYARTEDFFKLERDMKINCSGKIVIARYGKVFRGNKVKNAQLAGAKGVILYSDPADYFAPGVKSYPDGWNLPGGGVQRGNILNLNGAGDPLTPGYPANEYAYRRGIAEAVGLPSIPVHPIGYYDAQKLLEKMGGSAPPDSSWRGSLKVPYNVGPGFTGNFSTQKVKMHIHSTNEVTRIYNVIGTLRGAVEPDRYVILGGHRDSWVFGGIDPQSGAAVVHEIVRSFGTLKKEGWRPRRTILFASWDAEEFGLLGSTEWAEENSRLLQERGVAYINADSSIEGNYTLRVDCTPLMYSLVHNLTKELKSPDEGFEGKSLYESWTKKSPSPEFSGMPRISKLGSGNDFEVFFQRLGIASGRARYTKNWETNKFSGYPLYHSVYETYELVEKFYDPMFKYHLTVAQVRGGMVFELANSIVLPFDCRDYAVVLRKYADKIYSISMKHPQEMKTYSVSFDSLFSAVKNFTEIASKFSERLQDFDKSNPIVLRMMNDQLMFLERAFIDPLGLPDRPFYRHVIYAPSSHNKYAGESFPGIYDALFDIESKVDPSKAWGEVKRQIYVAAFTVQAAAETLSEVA

- Kd: 3.4 nM
B1: 5D3-CP33 bispecific monocyte engager (5D3-scFv HL fused to the N-terminus of CP33) (bispecific antibody, V domains shown)
VH: EVQLQQSGPELVKPGASVKISCKTSGYAFNTSWMNWVKQRPGQGLEWIGRIYPGDGDTNYNGKFKGKATLTADKSSSTAHMHLSSLTSVDSAVYFCARGEWYLYYFDYWGQGTTLTVSS
VL: DIQMTQTTSSLSASLGDRVTISCSASQGINNFLTWYQQKPDGTLKLLIYYTSSLHSGVPSRFSGSGSGTDYSLTIRNLEPEDIATYYCQQYSNLPFTFGGGTKVEIK
notes: VH of the anti-PSMA antibody 5D3 (scFv HL, heavy then light); linker of the 5D3 scFv HL; VL of the anti-PSMA antibody 5D3; The construct has the BiP secretion signal at its N-terminus (vector pMT/BiP/V5-HisA); About 35 kDa; also called 5D3-CP33 fusion; 5D3-scFv-CP33; not shown: SA-strep II, C-terminal, kept
